How the values were obtained:
[1] = biological target: HIV-1 NC WT (HIV-1 (NL4-3 isolate)) (UniProt P12493); assay: fluorescence anisotropy; settings: FA: 20 mM HEPES pH 7.5, 50 mM NaCl, 10 uM TCEP, 5 mM beta-mercaptoethanol, 1 uM zinc acetate, 20 C, 30 min; 20 nM micro-TAR RNA or 10 nM (TG)4 DNA (Table …)
HIV-1 NC WT = HIV-1 NC WT (HIV-1 (NL4-3 isolate), UniProt P12493 378-432); assay: fluorescence anisotropy; 1 uM zinc acetate; FA: 20 mM HEPES pH 7.5, 50 mM NaCl, 10 uM TCEP, 5 mM beta-mercaptoethanol, 1 uM zinc acetate, 20 C, 30 min; 20 nM micro-TAR RNA or 10 nM (TG)4 DNA (Table 1 footnote: room temperature); settings: protein: recombinant; label: 5' carboxyfluorescein (FAM); single strand

Molecule | Kd [1] | Kd (HIV-1 NC WT)
micro-TAR RNA 18-mer | 315 nM | 
TGTGTGTG (ssDNA) [(TG)4 DNA] |  | 5 ± 1 nM

Reference: article PMC3936775, “Differential contribution of basic residues to HIV-1 nucleocapsid protein’s nucleic acid chaperone function and retroviral replication”
